In US20060233808A1 (published 2006):

Biological target: T1, EGF receptor on human A431 cancer cells (human, UniProt P00533 25-1210)
T1 construct: whole, on cells; also called epidermal growth factor receptor; ErbB1
Experiment: competition assay on A431 cells, Mab425 fixed at 6.67 nM as competitor, Peptabody EGF 0.1 to 200 nM

binding result: binds
B1: Peptabody EGF (designed binder)
chain: MYSFEDLASHHHHHHGDLGPQMLRELQETNAALQDVRDYLRQLVREITFLKNTVMECDACGMQQTSPPTPPTPSPSTPPTPSPRSNSDSECPLSHDGYCLHDGVCMYIEALDKYACNCVVGYIGERCQYRDLKWWELR
notes: also called p-EGF; P-EGF
